Source: publication PMC10853775 (Nucleic Acids Research, 2023)

Target: the molecule itself
Assay: crystal structure

B1: human nucleoside diphosphate kinase (NDPKb) (enzyme)
chain: ANLERTFIAIKPDGVQRGLVGEIIKRFEQKGFRLVAMKFLRASEEHLKQHYIDLKDRPFFPGLVKYMNSGPVVAMVWEGLNVVKTGRVMLGETNPADSKPGTIRGDFCIQVGRNIIHGSDSVKSAEKEISLWFKPEELVDYKSCAHDWVYE
For B1, the “stoichiometry N” value was 6.
